Measurements as given in paper PMC10037447.
Values joined by “and” are separate entries in the source; they are usually repeats but may differ in a detail not shown here. Equal entries are not always repeated.

Biological target: F-type ATP synthase from bovine heart mitochondria (Bos taurus (purified from bovine heart))
Assay: native gel or EMSA; Blue-Native PAGE (3-12% Bis-Tris mini-gels) of F-type ATP synthase re-extracted with 0.5% LMNG from LAiR proteoliposomes (bovine heart lipids) at time points over 5 days of storage on ice at 4 °C

stoichiometry N: 2 and 4
Substance: F-type ATP synthase from bovine heart mitochondria (complex)
